From patent publication US11905559B2, “Materials and methods for controlling gene expression” (priority 2016, dated 2024)
Substitutions are numbered along the chain they refer to. Names may count otherwise. “And” between values parts separate entries of the source, which are not always exact repeats. Identical values can stand only once.

Experiments:
[1] = Isothermal titration calorimetry (ITC); type: binding; conditions: for Kd: 50 mM K^+ Hepes pH 7.5, 100 mM KCl, 10 mM MgCl2, read-out: KD for guanine
Description: For ITC experiments, wild-type G-aptamer and the mutant RNAs were synthesized by in vitro transcription of the DNA template and purified by denaturing polyacrylamide gel electrophoresis (PAGE). The ligand guanine was introduced in the syringe, while the RNA into the sample cell at a final concentration of 10 μM and 1 μM respectively. The concentrations were determined by absorbance reading using ε260=12010 M^−1 cm^−1 (guanine) and ε260=711400 M^−1 cm^−1 (RNA). The buffer in the syringe and the sample cell contained 50 mM K^+ Hepes (pH 7.5), 100 mM KCl, and 10 mM MgCl2. Binding reactions were performed at 30° C. on a MicroCal iTC200 instrument (Malvern) with a reference power of 6 μcal/sec, an initial delay of 60 secs and a stirring speed of 750 rpm. Guanine was titrated into the sample cell in 16 injections (2.5 μl each). The injection rate was 0.5 μl/sec and the spacing between the injections was maintained at 120 sec. Data was baseline corrected and fitted to a single-site binding model to obtain association constant (KA), stoichiometry (n) and binding enthalpy, ΔH. The dissociation constant (KD) and the binding free energy, ΔG was obtained from the fitted parameters using the following relations. All data analysis was performed using the Origin ITC software.
The ITC results are reported as mean±standard deviation from three independent experiments.

[2] = Constant-force (CF) single-molecule optical tweezers folding assay of guanine-aptamer RNAs in guanine buffer; type: physicochemical; conditions: for ΔG (0): zero force
Description: The aptamer folding was monitored in real time using a constant-force (CF) assay. Equilibrium sampling techniques provide unprecedented insights into the rare events in the course of folding that are otherwise difficult to identify. The technique also allows for determination of the kinetic rates that has not been fully investigated in the guanine riboswitch. The relative dynamics of the helices have been investigated in ensemble and smFRET experiments, which indicated a non-dynamic P1-P3, upon which the P2 helix switches conformations. As shown in FIG. 6A (left panel), the RNA oscillated between the linear and the hairpin conformations (E↔D↔C) at 13 pN. The distances ΔXED=7.1±0.4 nm and ΔXDC=7.9±0.4 nm correspond to the folding of a 17±1 nt (P2) and 19±1 nt (P3) respectively (FIGS. 7A-B). The conversion of distances to nucleotides in CF assay are described in Table 2.
A miniaturized dual beam optical tweezers instrument was constructed with a sampling rate of 0.4, 4 and 40 kHz. Typically, in the tweezers set up (FIGS. 2A-E), a single-molecule of RNA is held between two beads via ˜550 nucleotide (nt) long Handles A and B. Preparation of Handles and the RNA is described in the section above. The streptavidin coated polystyrene bead (diameter 1.5-1.9 μm, Spherotech Inc.) is fixed on a micropipette via suction, and the anti-digoxigenin coated bead (diameter 4.0-4.9 μm, Spherotech Inc.) is held in the dual counter-propagating laser beam. The trap stiffness, K is measured at 0.04-0.06 pN/nm from the power spectrum analysis of the Brownian motion of the trapped bead. For power spectrum analysis, a polystyrene bead with diameter ˜4.6 μm is trapped in the counter-propagating laser beam in aqueous buffer with a fixed trap position. […] The average from 10 beads yielded K˜0.049±0.0008 pN/nm, and the stoke's drag coefficient, y=0.0364±0.0002 pN. s/μm. […] However, the autocorrelation time (τ0) defined as the τ1=1/2πfc as described by Zoldak et al., “Ultrafast folding kinetics and cooperativity of villin headpiece in single-molecule force spectroscopy”. Proc. Natl. Acad. Sci. U.S.A 110, 18156 (2013) sets the detection limit for the observable kinetics, which is different from the sampling frequencies. […] The ACF for the time series of force signal, Fi, with sampling rate δ and N data points, is calculated as,
In a constant-force (CF) experiment, the RNA is held at a preset force through feedback control. The preset force typically fluctuated around the mean with a standard deviation ±0.15 pN. In this mode, data is recorded from 4-40 kHz to capture the fast intermediates. The plots are shown as extension vs. time (as in FIG. 6A). In force-jump (FJ) assay, the force is suddenly jumped from one force to another, and then held constant thereafter, as shown in FIGS. 23A-B.
All FR, CF and FJ experiments were carried out at an ambient temperature, 25±0.5° C. The buffer in the microfluidics contained 10 mM Tris-HCl, pH 7.5 at 25° C., 250 mM NaCl, 3 mM MgCl2, and purine concentrations as indicated in wild-type aptamer. Unless stated otherwise, Mg^2+ concentration in the buffer was maintained at 3 mM in all experiments. The buffer in mutant m1 contained 5 mm Mg^2+ and 1 μM G, and in m3 contained 5 mM Mg^2+ and 200 nM Guanine. For the remaining m2, m4, m5 and m6 mutants, the buffer in single-molecule experiments was supplemented only with 3 mM Mg^2+ and 200 nM Guanine.
In the force-ramp experiment, the trap was moved away (pull cycle) from the micropipette at 200 nm/sec, which corresponded to a loading rate of 7-8 pN/sec. This movement of the trap exerted a tension at the ends of the tethered RNA aptamer. […] In the constant-force (CF) experiment, the RNA was held at a preset force (FIG. 6A). The loading rate in CF experiments was zero. The preset force typically fluctuated around the mean with standard deviation ±0.15 pN. […]

[3] = transition C′A (merged C′B and BA), F 6.1 pN, 5 mM Mg^2+, 1 uM G
[4] = transition DC (P3 folding), F 12.0 pN, 5 mM Mg^2+, 1 uM G
[5] = transition ED (P2 folding), F 13.5 pN, 5 mM Mg^2+, 1 uM G
[6] = transition BA (P1 folding), 3 mM Mg^2+, 200 nM G (rates at 8.5 pN)
[7] = transition BA (P1 folding), F 8.5 pN, 3 mM Mg^2+, 200 nM G
[8] = transition BA (P1 folding), F 8.5 pN, 3 mM Mg^2+, 200 nM G, no helix width adjustment
[9] = transition BA (P1 folding), from data at 8.5 pN, 3 mM Mg^2+, 200 nM G
[10] = transition C′B (L2-L3 folding), 3 mM Mg^2+, 200 nM G (rates at 8.5 pN)
[11] = transition C′B (L2-L3 folding), F 8.5 pN, 3 mM Mg^2+, 200 nM G
[12] = transition C′B (L2-L3 folding), from data at 8.5 pN, 3 mM Mg^2+, 200 nM G
[13] = transition DC (P3 folding), 3 mM Mg^2+, 200 nM G (rates at 13 pN)
[14] = transition DC (P3 folding), F 13 pN, 3 mM Mg^2+, 200 nM G
[15] = transition DC (P3 folding), from data at 13 pN, 3 mM Mg^2+, 200 nM G
[16] = transition ED (P2 folding), 3 mM Mg^2+, 200 nM G (rates at 13 pN)
[17] = transition ED (P2 folding), F 13 pN, 3 mM Mg^2+, 200 nM G
[18] = transition ED (P2 folding), from data at 13 pN, 3 mM Mg^2+, 200 nM G

B1: m1: m1 mutant guanine sensing aptamer RNA (SEQ ID NO: 2); G37 replaced with adenine in the L2 loop (nucleic acid)
chain: CACUCAUAUAAUCGCGUGGAUAUAGCACGCAAGUUUCUACCGGGCACCGUAAAUGUCCGACUAUGGGUG
modifications: RNA, backbone and methylation of C not given here
notes: G37 replaced with adenine in the L2 loop
KD off relative to wild-type [1]: 35 fold | ΔG of guanine binding ([1]; 30° C.): -9.52 ± 0.22 kcal/mol | Equilibrium force F^eq ([2]; transition C′A (merged C′B and BA), 5 mM Mg^2+, 1 uM G (rates at 6.1 pN)): 6 pN and 6.0 ± 0.03 pN | Folding rate kf [2, 3]: 0.6 ± 0.05 s⁻¹ | Transition distance ΔX [2, 3]: 12.4 ± 0.3 nm | Unfolding rate ku [2, 3]: 0.6 ± 0.05 s⁻¹ | ΔG (0) ([2]; transition C′A (merged C′B and BA), from data at 6.1 pN, 5 mM Mg^2+, 1 uM G): −12.4 ± 0.5 kBT | Equilibrium force F^eq ([2]; transition DC (P3 folding), 5 mM Mg^2+, 1 uM G (rates at 12.0 pN)): 12.2 ± 0.01 pN | Folding rate kf [2, 4]: 20.7 ± 0.4 s⁻¹ | Transition distance ΔX [2, 4]: 7.7 ± 0.3 nm | Unfolding rate ku [2, 4]: 15.2 ± 0.3 s⁻¹ | ΔG (0) ([2]; transition DC (P3 folding), from data at 12.0 pN, 5 mM Mg^2+, 1 uM G): −15.9 ± 0.9 kBT | Equilibrium force F^eq ([2]; transition ED (P2 folding), 5 mM Mg^2+, 1 uM G (rates at 13.5 pN)): 13.4 ± 0.01 pN | Folding rate kf [2, 5]: 11.8 ± 0.3 s⁻¹ | Transition distance ΔX [2, 5]: 7.2 ± 0.2 nm | Unfolding rate ku [2, 5]: 15.1 ± 0.3 s⁻¹ | ΔG (0) ([2]; transition ED (P2 folding), from data at 13.5 pN, 5 mM Mg^2+, 1 uM G): −16.6 ± 0.7 kBT

B2: m4: m4 mutant guanine sensing aptamer RNA (SEQ ID NO: 5); A59G/U67C in the P3 hairpin (nucleic acid)
chain: B1 chain with A24G, A46G, U54C
modifications: RNA, backbone and methylation of C not given here
notes: A59G/U67C in the P3 hairpin
Kd ([1]; 30° C.): 3.59 ± 0.05 nM | L2-L3 kissing rate reduced versus wild-type ([2]; C′B folding rate): 4.5 fold | Barrier ΔGkiss^‡ prior to the L2-L3 interactions ([2]; free energy landscape transformed to zero force): ~8.4 kBT | Equilibrium force F^eq [2, 6]: 8.0 ± 0.1 pN | Folding rate kf [2, 7]: 0.33 ± 0.02 s⁻¹ | Unfolding rate ku [2, 7]: 1.0 ± 0.1 s⁻¹ | Transition distance ΔX [2, 8]: 9.5 ± 0.3 nm | ΔG (0) [2, 9]: −12.5 kBT and −12.5 ± 0.6 kBT | Equilibrium force F^eq [2, 10]: 7.6 ± 0.1 pN | Folding rate kf [2, 11]: 0.22 ± 0.02 s⁻¹ | Transition distance ΔX [2, 11]: 3.4 ± 0.1 nm | Unfolding rate ku [2, 11]: 0.56 ± 0.04 s⁻¹ | ΔG (0) [2, 12]: −6.1 ± 0.2 kBT | Increase of P3 stability ΔG(0) versus wild-type ([2]; transition DC): 1 kT | Equilibrium force F^eq [2, 13]: 13.0 ± 0.02 pN | Folding rate kf [2, 14]: 16.3 ± 0.3 s⁻¹ | Transition distance ΔX [2, 14]: 7.8 ± 0.2 nm | Unfolding rate ku [2, 14]: 16.5 ± 0.4 s⁻¹ | ΔG (0) [2, 15]: −17.3 ± 0.6 kBT | Equilibrium force F^eq [2, 16]: 13.9 ± 0.01 pN | Folding rate kf [2, 17]: 34.8 ± 1.1 s⁻¹ | Transition distance ΔX [2, 17]: 7.2 ± 0.2 nm | Unfolding rate ku [2, 17]: 8.8 ± 0.2 s⁻¹ | ΔG (0) [2, 18]: −17.6 ± 0.6 kBT

B3: m6: m6 mutant guanine sensing aptamer RNA (SEQ ID NO: 7); U67A, shorter P3 hairpin and larger L3 loop (nucleic acid)
chain: B1 chain with A24G, U54A
modifications: RNA, backbone and methylation of C not given here
notes: U67A, shorter P3 hairpin and larger L3 loop
Kd ([1]; 30° C.): 6.7 ± 0.63 nM | L2-L3 kissing faster than wild-type ([2]; C′B folding rate): 8.33 times | Equilibrium force F^eq [2, 6]: 8.3 ± 0.3 pN | Folding rate kf [2, 7]: 0.7 ± 0.02 s⁻¹ | Unfolding rate ku [2, 7]: 1.0 ± 0.1 s⁻¹ | Transition distance ΔX [2, 8]: 9.8 ± 0.2 nm | ΔG (0) [2, 9]: −13.9 ± 0.4 kBT | Equilibrium force F^eq [2, 10]: 7.2 ± 0.5 pN | Folding rate kf [2, 11]: 7.5 ± 0.2 s⁻¹ | Transition distance ΔX [2, 11]: 3.5 ± 0.2 nm | Unfolding rate ku [2, 11]: 23.9 ± 0.6 s⁻¹ | ΔG (0) [2, 12]: −6.1 ± 0.4 kBT | Equilibrium force F^eq [2, 13]: 10.6 ± 0.1 pN | Folding rate kf [2, 14]: 1.1 ± 0.03 s⁻¹ | Transition distance ΔX [2, 14]: 7.3 ± 0.1 nm | Unfolding rate ku [2, 14]: 115.4 ± 4.4 s⁻¹ | ΔG (0) [2, 15]: −11.1 kBT and −11.1 ± 0.3 kBT | Equilibrium force F^eq [2, 16]: 13.8 ± 0.03 pN | Folding rate kf [2, 17]: 23.9 ± 0.5 s⁻¹ | Transition distance ΔX [2, 17]: 7.1 ± 0.1 nm | Unfolding rate ku [2, 17]: 7.2 ± 0.2 s⁻¹ | ΔG (0) [2, 18]: −17.1 ± 0.3 kBT
